The target in this experiment is HIV-1 MN strain envelope (Env) on Env-pseudotyped virus (HIV-1 MN strain) (UniProt P05877). Briefly: cell-based or functional assay.
Chain of HIV-1 MN strain envelope (Env) on Env-pseudotyped virus (HIV-1 MN strain) (P05877 32-856 limits assumed): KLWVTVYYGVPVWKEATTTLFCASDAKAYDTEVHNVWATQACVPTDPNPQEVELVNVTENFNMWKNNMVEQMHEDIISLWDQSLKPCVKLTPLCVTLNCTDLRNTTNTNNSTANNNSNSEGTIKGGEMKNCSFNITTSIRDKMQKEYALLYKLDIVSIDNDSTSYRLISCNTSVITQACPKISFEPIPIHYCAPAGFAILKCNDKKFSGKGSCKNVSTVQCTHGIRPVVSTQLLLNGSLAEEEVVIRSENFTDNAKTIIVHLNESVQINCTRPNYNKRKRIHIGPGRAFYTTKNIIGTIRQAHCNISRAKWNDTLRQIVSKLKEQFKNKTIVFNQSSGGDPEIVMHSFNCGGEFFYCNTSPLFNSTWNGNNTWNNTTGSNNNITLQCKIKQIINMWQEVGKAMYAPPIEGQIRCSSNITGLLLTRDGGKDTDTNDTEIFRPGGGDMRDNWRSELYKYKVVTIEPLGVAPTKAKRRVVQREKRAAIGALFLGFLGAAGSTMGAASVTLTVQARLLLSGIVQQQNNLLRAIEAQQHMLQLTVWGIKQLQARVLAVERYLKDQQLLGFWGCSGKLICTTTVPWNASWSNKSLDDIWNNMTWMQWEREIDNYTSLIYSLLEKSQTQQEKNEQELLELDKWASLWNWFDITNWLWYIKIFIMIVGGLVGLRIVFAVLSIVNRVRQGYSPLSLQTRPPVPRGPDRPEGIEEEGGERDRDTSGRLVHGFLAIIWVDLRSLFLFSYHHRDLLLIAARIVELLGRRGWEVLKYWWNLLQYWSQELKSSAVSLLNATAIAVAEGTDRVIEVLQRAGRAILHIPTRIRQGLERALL

“native actinohivin (AH) polypeptide (from UniProt Q9KWN0 47-160)” yielded a 50% inhibitory concentration (IC50), neutralization of Env-pseudotyped virus, TZM-bl luciferase reporter assay of 0.5 µg/mL.

Source of the values: patent US20130209464A1.
